Substrate: C[S+](CC[C@H](N)C(=O)O)C[C@H]1O[C@@H](n2cnc3c(N)ncnc32)[C@H](O)[C@@H]1O
Assay: purified protein
Format: biochemical, Amycolatopsis sp. CA-128772
Details: KF 100 mM (methods text says 200 mM), Tris-HCl 50 mM pH 7.8, 50 °C, 10 min

B1: Fam (Amycolatopsis sp. CA-128772) (protein)
chain: MAKPSRPIIAFMSDLGITDDSVAQCKGLMLSVCPDVTIVDVCHTMKPWDVEEGARYIVDLPRLFPEGTVFATTTYPATGTTTRSVALRIKQAAKGGARGQWAGSGAGFERAEGSYIYIAPNNGLLTSVIEEHGYVEAYEVSSTEVIPEQPEPTFYSREMVALPSAHLAAGFPLEKVGRPLADDEIVRFERAKPAQNDDGELVGVVTAIDHPFGNVWTNIHREDLEKLGAGYGTRLRITLDEVLPFDLPLSPTFADAGPIGTPVAYLSSRGYLALARNAASLAYPYNLNAGISVRVVAA
For B1, the Km was 77.17 ± 14.10 µM, the kcat was 0.00285 s⁻¹ and the kcat/Km was 37 M⁻¹ s⁻¹.
